Consider one protein from paper PMC10253835, “Plakophilin-3 Binds the Membrane and Filamentous Actin without Bundling F-Actin” (International Journal of Molecular Sciences, 2023).

The data set concerns the molecule itself. Nature of the data set: SEC; purified plakophilin-3 on Superdex S-200 10/300; methods give 20 mM Tris pH 7.5, 150 mM NaCl, 1 mM dithiothreitol; dimer and monomer peaks pooled and reloaded; more dimer at higher concentration and lower reducing conditions, mainly monomer with dithiothreitol or TCEP. On the technique in general: Size exclusion chromatography separates by hydrodynamic size, large species first.

B1: plakophilin-3 (residues 305-797) (domain or fragment, human, UniProt Q9Y446 305-797, looked up)
chain: SHRTLQRLSSGFDDIDLPSAVKYLMASDPNLQVLGAAYIQHKCYSDAAAKKQARSLQAVPRLVKLFNHANQEVQRHATGAMRNLIYDNADNKLALVEENGIFELLRTLREQDDELRKNVTGILWNLSSSDHLKDRLARDTLEQLTDLVLSPLSGAGGPPLIQQNASEAEIFYNATGFLRNLSSASQATRQKMRECHGLVDALVTSINHALDAGKCEDKSVENAVCVLRNLSYRLYDEMPPSALQRLEGRGRRDLAGAPPGEVVGCFTPQSRRLRELPLAADALTFAEVSKDPKGLEWLWSPQIVGLYNRLLQRCELNRHTTEAAAGALQNITAGDRRWAGVLSRLALEQERILNPLLDRVRTADHHQLRSLTGLIRNLSRNARNKDEMSTKVVSHLIEKLPGSVGEKSPPAEVLVNIIAVLNNLVVASPIAARDLLYFDGLRKLIFIKKKRDSPDSEKSSRAASSLLANLWQYNKLHRDFRAKGYRKEDFLGP
notes: pET28 construct with eight histidines followed by an HRV-3C site at the amino terminus; no cleavage step is described; The protein is found as monomer and as homodimer; also called armadillo repeat motif domain of plakophilin-3; Pkp3; source: E. coli BL21(DE3) Rosetta2, purified (Ni-nitriloacetic acid column, Superdex S-200 size exclusion)
By stoichiometry N is commonly meant the number of molecules, sites or subunits per partner or assembly. Regarding B1, the “stoichiometry N” value came to 2.
